This passage reports stoichiometry N results from paper PMC2557009.

For assay [1], the target named is tubulin (sheep brain) (sheep). Kind of assay: co-sedimentation; 20 μM tubulin polymerised with 5 μM YB-1 in buffer M with 10% glycerol at 37°C to steady state, microtubules pelleted at 300 000 × g; SDS-PAGE, visual estimation on Coomassie stained gels. To be noted: scale: mole of YB-1 per mole of tubulin heterodimer.
The target in assay [2] is tubulin (sheep brain) (sheep). In words: co-sedimentation; 20 μM tubulin polymerised with 10 μM YB-1 in buffer M with 10% glycerol at 37°C to steady state, microtubules pelleted at 300 000 × g; SDS-PAGE, visual estimation on Coomassie stained gels. To be noted: scale: mole of YB-1 per mole of tubulin heterodimer.

By stoichiometry N is commonly meant the number of molecules, sites or subunits per partner or assembly.

YB-1, sequence (Q28618 whole entry): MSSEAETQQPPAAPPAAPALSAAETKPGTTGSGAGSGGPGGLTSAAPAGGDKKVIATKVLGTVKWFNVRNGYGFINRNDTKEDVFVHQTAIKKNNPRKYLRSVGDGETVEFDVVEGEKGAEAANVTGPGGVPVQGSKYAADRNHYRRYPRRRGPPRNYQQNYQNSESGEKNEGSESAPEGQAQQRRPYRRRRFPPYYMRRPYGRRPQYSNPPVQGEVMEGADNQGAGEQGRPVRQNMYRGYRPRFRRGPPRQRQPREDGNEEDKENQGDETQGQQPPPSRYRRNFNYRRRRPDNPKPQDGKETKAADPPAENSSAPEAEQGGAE

Consider “YB-1 (from UniProt Q28618 1-324) (natural protein)”, for which the stoichiometry N in assay [1] is 0.33; in assay [2], 0.5.
